Columns and labels:
[1] = target: T1, soluble region of S. cerevisiae Msp1 (Δ1-32), wild type (S. cerevisiae), P28737; assay: SEC + SEC-MALS; conditions: remark: other sources report otherwise
T1 chain: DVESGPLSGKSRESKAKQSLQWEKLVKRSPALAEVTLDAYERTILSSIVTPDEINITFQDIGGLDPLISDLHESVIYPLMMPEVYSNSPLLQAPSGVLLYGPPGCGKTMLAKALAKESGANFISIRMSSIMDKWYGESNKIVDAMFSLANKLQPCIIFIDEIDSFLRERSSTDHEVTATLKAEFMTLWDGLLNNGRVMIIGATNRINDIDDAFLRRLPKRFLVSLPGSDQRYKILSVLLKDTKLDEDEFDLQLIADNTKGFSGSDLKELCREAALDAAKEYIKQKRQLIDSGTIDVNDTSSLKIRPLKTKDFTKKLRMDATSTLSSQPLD

[2] = target: T1, soluble region of S. cerevisiae Msp1 …; assay: SEC + SEC-MALS; conditions: remark: other sources report otherwise
[3] = target: the molecule itself; assay: SEC
[4] = target: the molecule itself; assay: SEC + SEC-MALS

B1: soluble region of S. cerevisiae Msp1 (Δ1-32), wild type, P28737 33-362 (domain or fragment)
chain: DVESGPLSGKSRESKAKQSLQWEKLVKRSPALAEVTLDAYERTILSSIVTPDEINITFQDIGGLDPLISDLHESVIYPLMMPEVYSNSPLLQAPSGVLLYGPPGCGKTMLAKALAKESGANFISIRMSSIMDKWYGESNKIVDAMFSLANKLQPCIIFIDEIDSFLRERSSTDHEVTATLKAEFMTLWDGLLNNGRVMIIGATNRINDIDDAFLRRLPKRFLVSLPGSDQRYKILSVLLKDTKLDEDEFDLQLIADNTKGFSGSDLKELCREAALDAAKEYIKQKRQLIDSGTIDVNDTSSLKIRPLKTKDFTKKLRMDATSTLSSQPLD
stoichiometry N [1]: 6
stoichiometry N [2]: 2

B2: soluble (Δ1-32) S. cerevisiae Msp1 E193Q W166A/Y167A (domain or fragment, UniProt P28737 33-362, looked up)
chain: DVESGPLSGKSRESKAKQSLQWEKLVKRSPALAEVTLDAYERTILSSIVTPDEINITFQDIGGLDPLISDLHESVIYPLMMPEVYSNSPLLQAPSGVLLYGPPGCGKTMLAKALAKESGANFISIRMSSIMDKAAGESNKIVDAMFSLANKLQPCIIFIDQIDSFLRERSSTDHEVTATLKAEFMTLWDGLLNNGRVMIIGATNRINDIDDAFLRRLPKRFLVSLPGSDQRYKILSVLLKDTKLDEDEFDLQLIADNTKGFSGSDLKELCREAALDAAKEYIKQKRQLIDSGTIDVNDTSSLKIRPLKTKDFTKKLRMDATSTLSSQPLD
stoichiometry N [3]: 6

B3: soluble (Δ1-32) S. cerevisiae Msp1 E193Q H206A/E207A (domain or fragment, UniProt P28737 33-362, looked up)
chain: DVESGPLSGKSRESKAKQSLQWEKLVKRSPALAEVTLDAYERTILSSIVTPDEINITFQDIGGLDPLISDLHESVIYPLMMPEVYSNSPLLQAPSGVLLYGPPGCGKTMLAKALAKESGANFISIRMSSIMDKWYGESNKIVDAMFSLANKLQPCIIFIDQIDSFLRERSSTDAAVTATLKAEFMTLWDGLLNNGRVMIIGATNRINDIDDAFLRRLPKRFLVSLPGSDQRYKILSVLLKDTKLDEDEFDLQLIADNTKGFSGSDLKELCREAALDAAKEYIKQKRQLIDSGTIDVNDTSSLKIRPLKTKDFTKKLRMDATSTLSSQPLD
stoichiometry N [3]: 6

B4: soluble (Δ1-32) S. cerevisiae Msp1 E193Q (domain or fragment, UniProt P28737 33-362, looked up)
chain: DVESGPLSGKSRESKAKQSLQWEKLVKRSPALAEVTLDAYERTILSSIVTPDEINITFQDIGGLDPLISDLHESVIYPLMMPEVYSNSPLLQAPSGVLLYGPPGCGKTMLAKALAKESGANFISIRMSSIMDKWYGESNKIVDAMFSLANKLQPCIIFIDQIDSFLRERSSTDHEVTATLKAEFMTLWDGLLNNGRVMIIGATNRINDIDDAFLRRLPKRFLVSLPGSDQRYKILSVLLKDTKLDEDEFDLQLIADNTKGFSGSDLKELCREAALDAAKEYIKQKRQLIDSGTIDVNDTSSLKIRPLKTKDFTKKLRMDATSTLSSQPLD
stoichiometry N [4]: 6
